The values that follow come from paper PMC3616741.

T1 sequence (P26368 148-336, one chain of several): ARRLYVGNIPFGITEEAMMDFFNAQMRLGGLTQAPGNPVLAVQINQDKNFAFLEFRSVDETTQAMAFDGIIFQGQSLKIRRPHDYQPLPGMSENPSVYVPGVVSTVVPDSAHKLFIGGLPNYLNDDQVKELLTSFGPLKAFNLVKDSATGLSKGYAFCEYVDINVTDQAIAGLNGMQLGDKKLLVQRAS
Chain of U2AF65 1,2 MUT (P26368 148-336 D293N/K329Q/L331K/Q333E, one chain of several): as the sequence (P26368 148-336, one chain of several) above, with D146N, K182Q, L184K, Q186E counted along it

The first series concerns the target T1, U2AF65 1,2 (RRM1-RRM2, wild-type linker) (Homo sapiens, UniProt P26368 148-336). The series is described as follows: SPR.
CCCUUUUUUUUCC (ssRNA) [rAdML13]: the dissociation constant Kd came out at 12.5 ± 1.6 µM.

A further series addresses T1, U2AF65 1,2 (RRM1-RRM2, wild-type linker). Kind of series: SPR. This is another data set of the same source.
In turn, CCUCUCUUCCCCC (ssRNA) [rU(3)C(4,6,9,10,11)] came in with a Kd of 14.4 ± 1.1 µM.

CCUUUUCCCCCCC (ssRNA) [5'-4rU] had a Kd of 14.3 ± 0.6 µM.

In turn, CCCUUUCUCCUCC (ssRNA) [rC(7,9,10)] showed a dissociation constant (Kd) of 11.6 ± 0.8 µM.

CCCUUUCUCUUCC (ssRNA) [rC(7,9)] came in with a Kd of 11 ± 0.6 µM.

CCCUUUCUUCUCC (ssRNA) [rC(7,10)] showed a Kd of 14.5 ± 0.9 µM.

CCCCCCUUUUUCC (ssRNA) [3'-5rU] showed a Kd of 45.2 ± 3.4 µM.

Take CCCCCCCUUUUCC (ssRNA) [3'-4rU]: binding was put at a Kd of 69.4 ± 3.1 µM.

Take CCCUUUUUCUUCC (ssRNA) [rC(9)]: the equilibrium dissociation constant (Kd) stood at 13.7 ± 1.3 µM.

The molecule CCCUCUUUUUUCC (ssRNA) [rC(5)] registered a Kd of 13.9 ± 1 µM.

In turn, CCUUUUUCCCCCC (ssRNA) [5'-5rU] came in with a Kd of 14.4 ± 0.8 µM.

As to CCCCCCCCUUUCC (ssRNA) [3'-3rU], the Kd was found to be 89.5 ± 3.9 µM.

For the molecule CCUUUCCCCCCCC (ssRNA) [5'-3rU], binding was put at a Kd of 22 ± 0.9 µM.

In turn, CCCCCUUCUCUCC (ssRNA) [rC(4,5,8,10)] yielded a Kd of 27.9 ± 1.3 µM.

Consider UUUUUUUUUUUUU (ssRNA) [rU13], for which the Kd was 13.1 ± 0.9 µM.

Molecule CCCUUUCUUUUCC (ssRNA) [rC(7)] had a dissociation constant (Kd) of 9.3 ± 0.4 µM.

In the case of CCCUUUUUUCUCC (ssRNA) [rC(10)], the Kd was 11.9 ± 0.8 µM.

Another series concerns the target U2AF65 1,2 MUT (Homo sapiens, UniProt P26368 148-336, D293N;K329Q;L331K;Q333E). Kind of series: SPR.
On to CCUUUUCCCCCCC (ssRNA) [5'-4rU], for which the equilibrium dissociation constant (Kd) came to 14 ± 1.6 µM.

Molecule CCCCCCCUUUUCC (ssRNA) [3'-4rU] showed a Kd of 12.5 ± 1.3 µM.
